Biological target: acetylcholine receptor (Homo sapiens, UniProt P02708)
Assay: SPR binding affinity (RU) of optimized 5mer/6mer/7mer peptides, Examples 6-7
Settings: SPR, Resonance Units; 5mer Bottom sequence (bottom combinations); peptides tested at 10 μM
Method: Based on the frequencies of occurrence of the top 7 amino acids from Table 7 in Example 5, 600 peptides comprising these amino acids (top combinations) and those comprising the 13 less frequently occurring amino acids (bottom combinations) were synthesized for each series of 5mer, 6mer-1, and 6mer-2. The binding affinity of each sequence for the acetylcholine receptor was measured using Surface Plasmon Resonance (SPR) analysis method. The peptides were tested at a concentration of 10 μM. Additionally, the average binding affinities of the top and bottom combinations in each series are depicted in FIGS. 5-7.
Representative peptides identified in Example 6, two in each library, including 5mers (73, 311) and 6mers-1 (43, 210) and 6mers-2 (136, 233), were compared with the pre-optimized 6mer, 5mer-ND, and Synake.

acetylcholine receptor, sequence (P02708 21-457): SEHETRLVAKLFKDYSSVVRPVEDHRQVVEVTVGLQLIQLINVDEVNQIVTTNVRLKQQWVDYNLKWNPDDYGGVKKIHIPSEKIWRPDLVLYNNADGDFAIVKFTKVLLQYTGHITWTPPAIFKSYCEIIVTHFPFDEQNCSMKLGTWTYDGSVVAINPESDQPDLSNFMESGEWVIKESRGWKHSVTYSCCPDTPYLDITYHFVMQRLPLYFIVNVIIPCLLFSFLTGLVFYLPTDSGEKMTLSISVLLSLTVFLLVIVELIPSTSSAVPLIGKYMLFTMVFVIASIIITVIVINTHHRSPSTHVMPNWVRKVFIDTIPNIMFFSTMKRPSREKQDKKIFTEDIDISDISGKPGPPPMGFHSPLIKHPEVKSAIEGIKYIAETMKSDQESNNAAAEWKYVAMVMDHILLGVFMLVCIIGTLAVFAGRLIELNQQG

Row | Substance | Binding affinity
1 | 5mer-765 (RNEFR) | 12 Ru
2 | 5mer-766 (RNMEK) | 30 Ru
3 | 5mer-767 (RFHFK) | 12 Ru
4 | 5mer-768 (RDSWR) | 11 Ru
5 | 5mer-769 (KTEWK) | 32 Ru
6 | 5mer-770 (KKPFR) | 11 Ru
7 | 5mer-771 (RKWVK) | 24 Ru
8 | 5mer-772 (KYWFK) | 11 Ru
9 | 5mer-773 (RPNMR) | 25 Ru
10 | 5mer-774 (RTCDR) | 25 Ru
11 | 5mer-775 (RHTVK) | 23 Ru
12 | 5mer-776 (RCDFR) | 17 Ru
13 | 5mer-777 (RYNWK) | 28 Ru
14 | 5mer-778 (KKDHK) | 24 Ru
15 | 5mer-779 (KYPPR) | 21 Ru
16 | 5mer-780 (RDSHK) | 27 Ru
17 | 5mer-781 (RIDPR) | 28 Ru
18 | 5mer-782 (KANAR) | 32 Ru
19 | 5mer-783 (KCKVR) | 29 Ru
20 | 5mer-784 (RACEK) | 21 Ru
21 | 5mer-785 (KPTIR) | 31 Ru
22 | 5mer-786 (RFNKK) | 29 Ru
23 | 5mer-787 (KDNIR) | 17 Ru
24 | 5mer-788 (KYHGK) | 16 Ru

Row | Substance | Binding affinity
25 | 5mer-789 (KFWIR) | 12 Ru
26 | 5mer-790 (REAGK) | 33 Ru
27 | 5mer-791 (KTKMR) | 26 Ru
28 | 5mer-792 (RMEKK) | 31 Ru
29 | 5mer-793 (KKPHR) | 19 Ru
30 | 5mer-794 (KEAPK) | 20 Ru
31 | 5mer-795 (RTKKR) | 20 Ru
32 | 5mer-796 (KNWVR) | 17 Ru
33 | 5mer-797 (KETHK) | 15 Ru
34 | 5mer-798 (RETMK) | 13 Ru
35 | 5mer-799 (KDKPR) | 24 Ru
36 | 5mer-800 (KEAPR) | 29 Ru
37 | 5mer-801 (KFHGR) | 20 Ru
38 | 5mer-802 (RITVR) | 27 Ru
39 | 5mer-803 (RFSDR) | 11 Ru
40 | 5mer-804 (RNTIR) | 20 Ru
41 | 5mer-805 (RPTNR) | 27 Ru
42 | 5mer-806 (RKMFR) | 17 Ru
43 | 5mer-807 (RKNKK) | 20 Ru
44 | 5mer-808 (KFCIR) | 13 Ru
45 | 5mer-809 (RKSGK) | 15 Ru
46 | 5mer-810 (KFHKK) | 11 Ru
47 | 5mer-811 (KMTMR) | 32 Ru

Same assay, conditions: SPR; peptides tested at 10 μM; 5mer Bottom sequence

Row | Substance | Binding affinity
48 | 5mer-812 (KTEGR) | 27 Ru
49 | 5mer-813 (RAHVR) | 21 Ru
50 | 5mer-814 (RITMR) | 11 Ru
51 | 5mer-815 (RKDHR) | 27 Ru
52 | 5mer-816 (RKPIK) | 26 Ru
53 | 5mer-817 (RHKDR) | 23 Ru
54 | 5mer-818 (KHWHR) | 12 Ru
55 | 5mer-819 (RNTIK) | 19 Ru
56 | 5mer-820 (RIMHK) | 28 Ru
57 | 5mer-821 (RESDR) | 12 Ru
58 | 5mer-822 (RAKGK) | 16 Ru
59 | 5mer-823 (KECFK) | 26 Ru
60 | 5mer-824 (KIDMK) | 13 Ru
61 | 5mer-825 (RDEKK) | 14 Ru
62 | 5mer-826 (KCKMK) | 11 Ru
63 | 5mer-827 (KKAGR) | 18 Ru
64 | 5mer-828 (RFCWR) | 27 Ru
65 | 5mer-829 (KCWHR) | 26 Ru
66 | 5mer-830 (RIDGK) | 25 Ru
67 | 5mer-831 (RAAGK) | 24 Ru
68 | 5mer-832 (RMHER) | 18 Ru

Row | Substance | Binding affinity
69 | 5mer-833 (KATAK) | 33 Ru
70 | 5mer-834 (RMNIK) | 15 Ru
71 | 5mer-835 (RFMMR) | 14 Ru
72 | 5mer-836 (REWNR) | 15 Ru
73 | 5mer-837 (RPMDR) | 28 Ru
74 | 5mer-838 (RHSMK) | 13 Ru
75 | 5mer-839 (RHHDK) | 26 Ru
76 | 5mer-840 (KDTAR) | 11 Ru
77 | 5mer-841 (KNEMR) | 22 Ru
78 | 5mer-842 (RHNVK) | 20 Ru
79 | 5mer-843 (KTTPK) | 17 Ru
80 | 5mer-844 (KTDPR) | 32 Ru
81 | 5mer-845 (RYEDR) | 15 Ru
82 | 5mer-846 (RPDWR) | 32 Ru
83 | 5mer-847 (KAPEK) | 28 Ru
84 | 5mer-848 (RYMVK) | 12 Ru
85 | 5mer-849 (KTWMK) | 15 Ru
86 | 5mer-850 (KYDIR) | 13 Ru
87 | 5mer-851 (KMCWK) | 19 Ru
88 | 5mer-852 (KDSMK) | 22 Ru
89 | 5mer-853 (RYHIK) | 13 Ru

Row | Substance | Binding affinity
90 | 5mer-854 (RNTER) | 21 Ru
91 | 5mer-855 (RFMKK) | 18 Ru
92 | 5mer-856 (KPPDR) | 23 Ru
93 | 5mer-857 (KMENR) | 23 Ru
94 | 5mer-858 (RIMGR) | 33 Ru
95 | 5mer-859 (KHNAR) | 26 Ru
96 | 5mer-860 (RCHAK) | 31 Ru
97 | 5mer-861 (KTKIR) | 20 Ru
98 | 5mer-862 (KKNAK) | 19 Ru
99 | 5mer-863 (REANR) | 16 Ru
100 | 5mer-864 (KYHPR) | 25 Ru
101 | 5mer-865 (RMMER) | 21 Ru
102 | 5mer-866 (RINWR) | 11 Ru
103 | 5mer-867 (KDSWK) | 14 Ru
104 | 5mer-868 (KMHFK) | 18 Ru
105 | 5mer-869 (KKHPK) | 31 Ru
106 | 5mer-870 (RCKVK) | 25 Ru
107 | 5mer-871 (RHSHR) | 21 Ru
108 | 5mer-872 (RKKWK) | 29 Ru
109 | 5mer-873 (RYNFR) | 32 Ru
110 | 5mer-874 (RIHMR) | 27 Ru

Row | Substance | Binding affinity
111 | 5mer-875 (KHCNK) | 33 Ru
112 | 5mer-876 (KETAR) | 16 Ru
113 | 5mer-877 (RFSMR) | 17 Ru
114 | 5mer-878 (KHTER) | 24 Ru
115 | 5mer-879 (KDCMK) | 13 Ru
116 | 5mer-880 (RCDKK) | 17 Ru
117 | 5mer-881 (RNDAK) | 31 Ru
118 | 5mer-882 (REEGR) | 18 Ru
119 | 5mer-883 (KMSAK) | 16 Ru
120 | 5mer-884 (KIWEK) | 28 Ru
121 | 5mer-885 (RHCNR) | 19 Ru
122 | 5mer-886 (RMMFR) | 21 Ru
123 | 5mer-887 (KTPVR) | 30 Ru
124 | 5mer-888 (KKCIR) | 31 Ru
125 | 5mer-889 (KTPGR) | 25 Ru
126 | 5mer-890 (KKHFK) | 33 Ru
127 | 5mer-891 (RKKMK) | 24 Ru
128 | 5mer-892 (RKPMR) | 29 Ru
